B1: 21M20 Fab (Fab, V domains shown)
VH: EVQLVESGGGLAKPGGSLRLSCAASGFTFSRSIMHWVRQAPGKGLEWVSTINYAGSTYYADSVRGRFVISRDNSKNTLSLQMNSVRPEDRAVYHCAKDKEGYYSGGYPLWYFDLWGPGTPVTISS
VL: DVQMTQSPSSLSASVGDKVSITCRASQGIADALAWYQQKPGKAPKLLIYGASNLESGVPSRFSGSGSGTDFSLTISSLQAEDFAVYYCQQRNSHPPTFGQGTRVEVK
B2: 21N13 Fab (Fab, V domains shown)
VH: QVQLQESGPGRVKPSETLSLTCAVSDDSFGSSYFYWSWIRQAPGKGLEWIGYIAYSGGVRYNPSLSSRVTISRNIHERQFYLRLTSMTAADTAVYYCARHCEDDYGYYSAAQSYGLDSWGQGIAVTVSP
VL: DIQMTQSPSSLSASVGDRVTITCRTSENVNNCLNWYQQKPGKAPKLLIYRTSTLQRGVPSRFSGTGSGTDYTLTISSLQSEDFGTYYCQHYYGTPLTFGGGTMVDIK

Experiments:
[1] = molecular target: BG505 SOSIP.v4.1-GT1.1 (HIV-1 (isolate BG505)) (UniProt Q2N0S6); experiment: cryo-EM structure
[2] = molecular target: BG505 SOSIP.v4.1 GT1.1 trimer (BG505 SOSIP germline trimer 1.1) (HIV-1 (isolate BG505)) (UniProt Q2N0S6); experiment: cryo-EM structure

Binder | stoichiometry N (Ab:Env trimer) [1] | stoichiometry N [2]
B1 | 1 | –
B2 | – | 3
